The text below walks through data of patent publication US20170267766A1.

Assay [1] deals with human IGF-1R (native, on cells) (human) (UniProt P08069). Nature of the assay: FACS on MCF-7 cells, 4°C; inset table, axis log [M] (Table 14b prints it rounded as 7.09E-10).
In assay [2] the target is soluble recombinant human IGF-1R hetero-tetramere with C-terminal 10-His tag (R&D Systems 305-GR) (human) (UniProt P08069). Nature of the assay: SPR Biacore X100, Ln(2)/koff, mean of 4.
Assay [3] has the same target. The assay can be described thus: SPR Biacore X100, His-captured h-IGF-1R ~600 RU, mean of 4.
Assay [4] concerns the target monkey IGF-1R (on COS-7 cells) (African green monkey). The assay can be described thus: FACS on COS-7 cells, 4°C; inset table, axis log [M] (Table 14b prints it rounded as 5.1E-10).
For assay [5], the target named is human IGF-1R (native, on cells) (human) (UniProt P08069). Nature of the assay: cell-based or functional assay.
Assay [6] shares this target. The assay can be described thus: FACS titration, MCF-7.
Assay [7] deals with monkey IGF-1R (on COS-7 cells) (African green monkey). The assay can be described thus: FACS titration, Cos-7.

B1: hz208F2 H026/L024 (antibody, from a related filing, V domains shown)
VH: QVQLVQSGAEVKKPGASVKMSCKASGYTFTSYYIYWVKQAPGQGLEWLGWIWPGDGSTKYNEKFQGRVTLTADKSSNTAYMFLSSLRSEDTAVYFCASPMITPNYAMDYWGQGTLVTVSS
VL: DIQMTQSPSSLSASVGDRVTISCRASQDISKYLNWYQQKPGKAPKLLIYYTSRLHSGVPSRFSGRGSGTDYSLTISNLQPEDFATYFCQQGSTLPYTFGGGTKVEIKR
As to B1, the EC50 in assay [1] came out at 0.71 nM; in assay [4], 0.511 nM; in assay [6] it was 0.709 nM; in assay [7] it was 0.51 nM. The half-life of the complex in assay [2] is 2 to 3 h. In addition, the Kd in assay [3] was 0.06 nM. Besides, the % internalization in assay [5] was determined as 87%. The ΔMFI (MCF-7, 10 µg/ml, 4 h) in assay [5] was determined as 344 MFI.
